# Results from US10920265B2, “Compounds and methods for detection of enzymes that remove methyl succinyl groups from epsilon-amino lysine moieties” (Enzo Life Sciences, Inc., priority 2011, dated 2021).
# B1: recombinant human SIRT5 (Homo sapiens) (protein)
# chain: SSSMADFRKFFAKAKHIVIISGAGVSAESGVPTFRGAGGYWRKWQAQDLATPLAFAHNPSRVWEFYHYRREVMGSKEPNAGHRAIAECETRLGKQGRRVVVITQNIDELHRKAGTKNLLEIHGSLFKTRCTSCGVVAENYKSPICPALSGKGAPEPGTQDASIPVEKLPRCEEAGCGGLLRPHVVWFGENLDPAILEEVDRELAHCDLCLVVGTSSVVYPAAMFAPQVAARGVPVAEFNTETTPATNRFRFHFQGPCGTTLPEALACHENETVS
# notes: purchased Enzo Life Sciences BML-SE555
# Substrate: CC(=O)N[C@@H](CCCCNC(=O)CCC(=O)O)C(=O)Nc1ccc2c(C)cc(=O)oc2c1
# Assay: SIRT5 desuccinylation/deacetylation of fluorogenic lysyl substrates, trypsin developer
# Format: biochemical, human
# Conditions: other: varied substrate: Lysyl, 1 mM NAD^+, 10 ng SIRT5, 20 min. at 37° C., pH 8.0
# Method: FIG. 3 is graphs showing that SIRT5 catalyzes NAD^+-dependent desuccinylation of Ac-Lys(ε-succinyl)-AMC far more efficiently than NAD^+-dependent deacetylation of Ac-Arg-His-Lys-Lys(ε-acetyl)-AMC. Fifty μl reactions in Assay Buffer (50 mM Tris/HCl, pH 8.0, 137 mM NaCl, 2.7 mM KCl, 1 mM MgCl2, 1 mg/ml BSA) included 50 μM of either Ac-Lys(ε-succinyl)-AMC or Ac-Arg-His-Lys-Lys(ε-acetyl)-AMC, and, where indicated, 500 μM NAD^+ and 5 μg recombinant human SIRT5 (Enzo Life Sciences Cat. # BML-SE555). […] AMC fluorescence was read in a Cytofluor II plate-reading fluorimeter (Perseptive Biosystems) at wavelengths 360 nm (excitation)/460 nm (emission), Gain 54. Data represent the mean of two (No Enzyme) or three (+SIRT5) determinations and error bars the standard deviations. Panels A and B present the same data, but with the +SIRT5/+NAD^+/Ac-Lys(ε-succinyl)-AMC bar omitted from B to show the detail on the remaining bars. Statistically significant differences (Student's t-test) are indicated by asterisks as follows: *: p<0.02 vs. corresponding No Enzyme control; **: p<0.001 vs. corresponding −NAD^+ control; ***: p<3×10^−6 vs. both No Enzyme and −NAD^+ controls.
# FIG. 4 is a graph showing that Ac-Lys(Succ.)-AMC enables SIRT5 assay at low enzyme concentrations. Fifty μl reactions in Assay Buffer (50 mM Tris/HCl, pH 8.0, 137 mM NaCl, 2.7 mM KCl, 1 mM MgCl2, 1 mg/ml BSA) included 2 or 10 μM Ac-Lys(ε-succinyl)-AMC, 500 μM NAD^+ and, where indicated, 5 ng recombinant human SIRT5 (Enzo Life Sciences Cat. # BML-SE555). […] AMC fluorescence was read in a Synergy 2 plate-reading fluorimeter (BioTek) at wavelengths 360 nm (excitation)/460 nm (emission), Gain 40. Data represent the mean of two (No Enzyme) or three (5 ng SIRT5) determinations and error bars the standard deviations. Statistically significant differences (Student's t-test) are indicated by asterisks as follows: *: p=0.002; **: p=0.009, each with respect to the corresponding “No SIRT5” samples.
# FIG. 5 is graphs showing dependence of SIRT5 initial rate kinetics on the concentrations of Ac-Lys(Succ.)-AMC and Ac-Lys(Ac.)-AMC. Fifty μl desuccinylation or deacetylation reactions were performed as described earlier (FIG. 4), with the indicated concentrations of Ac-Lys(Succ.)-AMC or Ac-Lys(Ac.)-AMC and 1 mM NAD^+, for 20 min. at 37° C. Reactions with Ac-Lys(Succ.)-AMC contained 10 ng SIRT5 and those with Ac-Lys(Ac.)-AMC contained 5 SIRT5. […] AMC fluorescence was read in a Synergy 2 plate-reading fluorimeter (BioTek) at wavelengths 360 nm (excitation)/460 nm (emission), Gain 40. […] Fluorescence differences were converted to specific activities (pmol/min/μg) by measuring the fluorescence increase due to the addition a standard solution of AMC (5 μl of a […]). […]
protein,measurement,value
B1,Km,108 µM
same,Vmax,490 pmol/min/µg
same,kcat,0.26 s⁻¹
same,kcat/Km,2450 M⁻¹ s⁻¹
